Results from the RNAGym collection of RNA variant scans (doi:10.1093/nar/gkz1192).

B1: CPEB3 Ribozyme (parent)
chain: UAACAGGGGGCCACAGCAGAAGCGUUCACGUCGCAGCCCCUGUCAGAUUCUGGUGAAUCUGCGAAUUCUGCUGUAUAUCUC

Variants of: B1
Experiment: self-cleavage, relative activity (ratio to wild type); higher = more cleavage; in vitro, sequencing
Procedure, shortened: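 Barcoded CPEB3 ribozyme mutants, produced by rounds of error-prone PCR, self-cleaved while being transcribed with T7 RNA polymerase for 5 hours at 37°C and during a subsequent 15 min DNase I step before EDTA was added. Sequencing of template-switched cDNA on Illumina gave cleaved and total reads, and DNA sequencing assigned barcodes to variants. Each variant's relative activity is its cleaved/total read fraction divided by the unmutated ribozyme's fraction, averaged across three batches. A variant needed a minimum of 5 reads.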

Point of comparison: U31C A57C, self-cleavage 0.49. Against it:
- U31C C40A — lower, 0.2
- U31C C40U — the same, 0.49
- C32A A75U — lower, 0.16
- C32A A75C — higher, 0.56
- U31C A56G — higher, 0.67
- U31C A56U — lower, 0.47
- U31C C39A — lower, 0.18
- U31C G36A — lower, 0.13
- U31C G36U — lower, 0.14
- U31C A64C — lower, 0.14
- U31C A64U — lower, 0.31
- U31C A64G — higher, 0.64
- U31G A77G — higher, 0.59
- G33A A45U — lower, 0.39
- G33A A45C — lower, 0.22
- G33A A45G — lower, 0.24
- C32A A77U — lower, 0.33
- U31C G46U — lower, 0.23
- U31C G46A — lower, 0.15
- C32U G46A — lower, 0.15
- C32U G55A — lower, 0.14
- C32A U67A — lower, 0.13
- U31G U54C — higher, 0.63
- U31G U54A — higher, 0.62
- C32U G61C — lower, 0.18
- U31C G73A — higher, 1.26
- U31G C40G — lower, 0.12
- U31C G53A — higher, 0.91
- U31C G53U — higher, 1.06
- G33A A35G — lower, 0.39
- G33A A35U — lower, 0.21
- U31G A35U — lower, 0.36
- U31G A35G — higher, 1.1
- U31G U80A — higher, 0.59
- U31G U80C — higher, 0.72
- C32U U69C — lower, 0.17
- C32U U69A — lower, 0.23
- U31G U67A — lower, 0.25
- U31G U67C — lower, 0.3
- G33A — lower, 0.28
- U31G U43C — lower, 0.36
- U31G U41A — lower, 0.29
- U31G U41C — lower, 0.33
- U31G C39U — lower, 0.34
- U31G G33A — higher, 0.57
- U31G A64G — lower, 0.46
- U31C C81U — higher, 1.14
- U31C C81G — higher, 0.55
- C32U A75G — lower, 0.11
- C32U U54A — lower, 0.2
- C32U U54C — lower, 0.33
- C32U U51A — lower, 0.19
- C32U U51G — lower, 0.22
- C32U U51C — lower, 0.16
- U31G C79A — higher, 0.56
- U31C U80C — higher, 0.96
- U31C U80A — higher, 1.01
- U31C U80G — higher, 1.13
- U31C U78G — higher, 0.84
- U31C U78C — higher, 0.87
- U31C U78A — higher, 0.86
- C32A U74C — lower, 0.22
- U31G U49A — lower, 0.34
- U31G U49C — lower, 0.26
- G33A A56G — lower, 0.28
- G33A A56U — lower, 0.18
- C32A U43C — lower, 0.35
- C32A U43A — higher, 0.5
- U31C A47U — lower, 0.4
- U31C A47G — higher, 0.8
- U31C A47C — lower, 0.31
- C32A C68U — lower, 0.22
- C32U U43C — lower, 0.25
- C32U U43A — lower, 0.43
- C32U C38U — lower, 0.08
- U31C U76C — higher, 0.88
- U31C U76A — higher, 0.77
- U31C U76G — higher, 0.8
- C32U U41A — lower, 0.27
- C32U U41C — lower, 0.26
- C32U C81U — lower, 0.37
- C32G U78C — lower, 0.09
- C32G A77U — lower, 0.2
- U31C C32U — lower, 0.22
- U31C C32A — lower, 0.31
- C32U G70A — lower, 0.21
- C32U U80C — lower, 0.44
- C32G U69C — lower, 0.44
- U31C U54C — higher, 0.8
- U31C U54G — higher, 0.68
- U31C U54A — higher, 0.92
- C32G U54A — lower, 0.19
- U31G A56G — lower, 0.45
- C32A U41C — lower, 0.36
- C32A U41A — lower, 0.27
- C32A C34G — lower, 0.44
- G33A A75U — lower, 0.11
- U31G G55A — lower, 0.21
- C32A U54C — lower, 0.32
- C32A U54A — lower, 0.29
- U31C G42U — lower, 0.13
- U31C G42A — lower, 0.35
- C32U G42A — lower, 0.19
- U31C C44G — lower, 0.31
- U31C C44U — lower, 0.26
- U31C C44A — lower, 0.4
- U31C U51G — higher, 0.89
- U31C U51A — higher, 0.89
- U31C U51C — higher, 0.78
- U31G C34U — lower, 0.18
- U31G C34A — lower, 0.14
- C32A U80C — higher, 0.69
- C32A U80A — lower, 0.37
- C32U C79A — lower, 0.22
- G33A A57G — lower, 0.25
- G33A A57C — lower, 0.11
- U31G A75U — lower, 0.46
- U31G A75G — higher, 0.54
- C32A C40A — lower, 0.11
- C32A C40U — lower, 0.2
- C32A C40G — lower, 0.43
- C32A G55A — higher, 0.5
- U31C U66G — lower, 0.35
- U31C U66A — lower, 0.28
- U31C U66C — lower, 0.27
- C32U G52C — lower, 0.2
- C32A A56G — lower, 0.15
- C32A C59A — lower, 0.15
- U31C A57G — higher, 0.75
- U31C A57U — lower, 0.47
- G33A A64G — lower, 0.16
- G33A A64U — lower, 0.28
- C32A U69A — lower, 0.18
- C32A U69C — lower, 0.07
- C32U A64U — lower, 0.13
- C32U A64G — lower, 0.3
- C32A U51C — lower, 0.29
- C32A U51A — lower, 0.24
- C32A U51G — lower, 0.31
- U31G G36U — lower, 0.15
- U31G U66C — lower, 0.37
- C32U A57G — lower, 0.22
- C32U A57U — lower, 0.13
- C32U A57C — lower, 0.13
- C32A A57G — lower, 0.24
- C32A A57U — lower, 0.2
- U31G U60C — lower, 0.31
- U31G U60A — lower, 0.32
- U31C C79U — higher, 1.1
- U31C C79A — higher, 0.94
- C32G U72C — lower, 0.11
- U31C C71G — lower, 0.23
- U31C C71U — lower, 0.25
- C32U U74C — lower, 0.38
- C32U U74G — lower, 0.09
- U31C U43A — higher, 1.03
- U31C U43G — lower, 0.36
- U31C U43C — the same, 0.49
- U31C U69A — lower, 0.37
- U31C U69G — lower, 0.41
- U31C U69C — lower, 0.31
- U31C U67C — lower, 0.26
- U31C U67A — lower, 0.34
- U31C U49A — higher, 0.5
- U31C U49C — lower, 0.23
- U31C U49G — lower, 0.3
